Assay results taken from the supplement of paper PMC9170038.

System: MS2 coat protein
Experiment: apparent KD of MS2 coat protein; designed switch direction (-1 OFF switch, 1 ON switch): -1; higher = weaker reporter binding
Outline: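 An oligonucleotide input, 200 uM small-molecule ligand, or no input was present during titration of SNAP-549-labelled MS2 coat protein, which was doubled from 0.7 or 1.5 nM to 3 µM. Designed RNA switches had been transcribed on Illumina chips by stalled E. coli RNA polymerase. Apparent KD per design is the median over clusters of curves fitted to normalised cluster fluorescence.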

[1] = input ligand: microRNA oligo, concentration not stated
[2] = Eterna round: R95, input ligand: FMN 200 uM
[3] = Eterna round: R95, input ligand: microRNA oligo, concentration not stated
[4] = Eterna round: R95, input ligand: none

Sequence | apparent KD of MS2 coat protein (input ligand: FMN 200 uM) [nM] | apparent KD of MS2 coat protein [1] [nM] | apparent KD of MS2 coat protein (input ligand: none) [nM] | apparent KD of MS2 coat protein [2] [nM] | apparent KD of MS2 coat protein [3] [nM] | apparent KD of MS2 coat protein [4] [nM]
CGAUGCUCGUGUCCACAUGAGGAUCACCCAUGUCGAGUUAGCGAGGAUAUCGGUGACACAUAGUACGAGAAGGCGCGAACCUGA [Ex NG3 #26] (Eterna round: R96, puzzle: Exclusion NG 3) | 54.3 | 21 | 32.2 | – | – | –
GAGAGCAACGUCAGGAUAUUUAACCAAAACGCGGUAGAGAAGGGACAUGAGGAUCACCCAUGUGACUUCGGGCA [Eternabot (L1) Solution 83] (Eterna round: R97, puzzle: Brourd's mod of Exclusion 4) | 15.5 | – | 16.8 | – | – | –
ACAAGCUCUGUGGGUGGGUACAUGAGGAUCACCCAUGUUUUGCUCGUCUUGUGGGCCCGGGCCCGCGGCCCGGGCCC [-41.4, -69.7, A 12%] (Eterna round: R97, puzzle: Sensor, turn-off variant 1) | 604 | – | 1180 | – | – | –
GGAUGGCGAGGAUAUACAUGAGGAUCACCCAUGUGAGAGAAAUAAGUGAGGAAGAAAAGUAGAAGGCGCAGACG [Mat - Exclusion 3 - Mod of Salish D45] (puzzle: Exclusion 3) | – | – | – | 11.1 | 55.7 | 53.1
UAAAUGUGAGGAUAUUCGUAGAACUCGGAGACGAGUUUUACGGAGAAGGCACAUGAGGAUCACCCAUGUUCCUU [Mat - Exclusion 4 - JL Mod - D2] (Eterna round: R97, puzzle: Exclusion 4) | 169 | – | 28.6 | – | – | –
GGAUAAAACUGAGGAUAUGCGUAUAGAUAGAGAGCAGAAGGCAGACAUGAGGAUCACCCAUGUGAGUUCUCGAUAAGAAACACG [Prohibition 58 - Jieux - Exclusion NG 1] (Eterna round: R96, puzzle: Exclusion NG 1) | 118 | 36.1 | 35.2 | – | – | –
ACUUGUUGUCCUUGAUAUUACAUGAGGAUCACCCAUGUUAUUGUGAUUUUGAUGUGUAAGUUUGUUGCUCGUCUUAU [JR_STOV1_Sub064] (Eterna round: R97, puzzle: Sensor, turn-off variant 1) | 70.2 | – | 71.5 | – | – | –
GGUGAGCUAGGAUAUGCUUUGGGCUCGCAUUCCUUCGAUAAACUUGAGGAUCACCCAAGUAGAAGGAGCUUGCC [salish99_ex2_r4_032] (Eterna round: R97, puzzle: Exclusion 2) | 23.3 | – | 15.8 | – | – | –
UUUUUAGUGCUUUUUAAGUACAUGAGGAUCACCCAUGUACUUGUCUGGUGGUCCGGACAAGCUUUUUGCUCGUCUUG [Trying Again] (puzzle: Sensor v3, turn-off variant 1) | – | – | – | 41.4 | 35.9 | 48.2
UAUGUUGUUGUGAGGAUAUACUUAGUUUGACCGUAGUAGAAGGCACAUGAGGAUCACCCAUGUAGAUUUUUGGU [JR_BME4_Sub007] (puzzle: Brourd's mod of Exclusion 4) | – | – | – | – | 9.49 | –
AUGCCACAUGAGGAUCACCCAUGUGAGGAUAUGGCCUGUUUGGCGUGUGCUGGCUCUGUCAGAAGGCGCGUGGG [salish99_ex1_r4_036] (Eterna round: R97, puzzle: Exclusion 1) | 33.9 | – | 25.7 | – | – | –
CUAAUACAUCAGGAUAUGAUAGCCUAUAGCAUAUCAGAAGGGAUGACAUGAGGAUCACCCAUGUCAAAGGGUGA [eternacac ex6r4 sub19] (Eterna round: R97, puzzle: Exclusion 6) | 396 | – | 444 | – | – | –
AACCAUGAAGGAUAUGACUUAACGAACAUGAGGAUCACCCAUGUGACCGAGCAGUGUUGAUCAGAAGGUUAAGGUG [Rier] (puzzle: Exclusion 5) | – | – | – | 101 | 83.7 | 139
AACUAGUCAGGAUAUACAUGAGGAUCACCCAUGUAAACUUUUAGUUUAAUUUGAAUGUGUAGAAGGGACAUAAA [Ex3 #43] (Eterna round: R97, puzzle: Exclusion 3) | 20.7 | – | 20.3 | – | – | –
UAUUAACAAGUAAGAUCCCACAUGAGGAUCACCCAUGUGCUCGUCUUAUAAGGUACUGUGACGAAAGUCACGGUACC [Sensor 3, v1 - 87] (Eterna round: R96, puzzle: Sensor v3, turn-off variant 1) | 13.8 | 367 | 16.9 | – | – | –
CAGAAUUGAGGAUAUGAUCAAUUUAACAUGAGGAUCACCCAUGUAUGGGAAUGAUUCUGAUCAGAAGGCGAUUCUU [Exclusion 5: 1:a] (puzzle: Exclusion 5) | – | – | – | 257 | 285 | 461

Sequence | apparent KD of MS2 coat protein (input ligand: FMN 200 uM) [nM] | apparent KD of MS2 coat protein [1] [nM] | apparent KD of MS2 coat protein (input ligand: none) [nM] | apparent KD of MS2 coat protein [2] [nM] | apparent KD of MS2 coat protein [3] [nM] | apparent KD of MS2 coat protein [4] [nM]
AGUACUAACACGUUAGUGUUAGUACAAUAAGCUUGUGAAACAUGAGGAUCACCCAUGUCCUCAUAAGCUCGUCUUAU [salish99_TOv2_r3_056] (puzzle: Sensor v3, turn-off variant 2) | – | – | – | 16.7 | 645 | 16.1
CCUAGUUGGUAAGGAUAUCCUACAUUGUUCUGACCCGGGCAUGCUACAUGAGGAUCACCCAUGUGGGAGAAGGUGCGUCAUCGC [Design 16] (Eterna round: R96, puzzle: Exclusion NG 2) | 80.4 | 55.9 | 83.4 | – | – | –
AAUAUGUUAGGAUAUCUCAGCUGCCCGUAAACAGGCUAGCGAGAGAAGGGACAUGAGGAUCACCCAUGUCAUCC [Eternabot (Original) Solution 2] (Eterna round: R97, puzzle: Exclusion 4) | 17.1 | – | 15.6 | – | – | –
AAAUUAGCAAGUAGAUCCGACAUGAGGAUCACCCAUGUUAUCUGAAAGAACGCAGCAUAAUUGUGAGCUCGUCUAAA [Sensor-V1 #4] (Eterna round: R97, puzzle: Sensor, turn-off variant 1) | 93.7 | – | 91.5 | – | – | –
GGAAAAAUAUAGGAUAUGGGAGGGAGGACCGAACCAGAAGGAUAGACAUGAGGAUCACCCAUGUAAAGAUCCUC [AK-MS2ROC-r4-exclusion6-6] (Eterna round: R97, puzzle: Exclusion 6) | 377 | – | 204 | – | – | –
CUUGAAUAAGUGAGGAUAUACUGUUAGUAAUGAUUGUAGAAGGUACAUGAGGAUCACCCAUGUUUAUUCAUAAU [JR_BME4_Sub041] (puzzle: Brourd's mod of Exclusion 4) | – | – | – | – | 17.5 | –
ACGCCUCCUGUCAGGAUAUGCAUCGGGCUUCCGCAGCAGAAGGGACAUGAGGAUCACCCAUGUCAAAUAAAAUC [Onsoqule] (puzzle: Brourd's mod of Exclusion 4) | – | – | – | – | 16.3 | –
AAGGAUAGAGGAUAUACAUAGAUACAGAUUCAUGUGGUCCUACAUGAGGAUCACCCAUGUAGAAGGCUAUCCUA [Fiskers Ex 2 - 14] (puzzle: Exclusion 2) | – | – | – | – | 169 | –
AACUAGUGAGGAUAUACAUGAGGAUCACCCAUGUACGUCGUGGGUAGAAAACAAGUCAGUAGAAGGUGCUAGAC [Ininor] (puzzle: Exclusion 3) | – | – | – | – | 174 | –
UCUGGUCAAGGAUAUACAAUCGUGCUUCGGCACGUAAGAUCACAUGAGGAUCACCCAUGUAGAAGGUGACCAGA [E2/1-C3] (Eterna round: R97, puzzle: Exclusion 2) | 449 | – | 43.9 | – | – | –
UCUCAACAUGAGGAUCACCCAUGUGAGGAUAUGAUGCAGCAGUGGUCUACGCUGUGCAUCAGAAGGCACAUGUG (puzzle: Exclusion 1) | – | – | – | – | 119 | –
UUUUAACAUGAGGAUCACCCAUGUGAGGAUAUCGAAAUUUAUAUUAAUAUUAAUUAUUCGAGAAGGCACAUUUU [JMF 29] (puzzle: Exclusion 1) | – | – | – | – | 114 | –
AAUAAGCGAGGAUAUACAUGAGGAUCACCCAUGUGGACCGGGUGUUCAGCAAAUAAAAGUAGAAGGCGCAAAAG [Tibiater] (puzzle: Exclusion 3) | – | – | – | 29.1 | 46.8 | 25.8
CGAGCCUAUGUAAGGAUAUCACAAUAAAACCAGUGUGAGAAGGUACAUGAGGAUCACCCAUGUUCACGACUGGC [BmEX4 A.26] (Eterna round: R97, puzzle: Brourd's mod of Exclusion 4) | 16.9 | – | 16.8 | – | – | –
AGACAGUCAGGAUAUACAUGAGGAUCACCCAUGUUGAGAAGAGAAAGGGCAGGAAGAGGUAGAAGGGACAAGAA [JR_Exclu3_Sub034] (puzzle: Exclusion 3) | – | – | – | 21.3 | 25.7 | 29.3
CCGAGGUAGCGGUCCUAUGACAUGAGGAUCACCCAUGUACCUCGCUACGAGCUUUUUGCUCGUCUUAUAAUUCUCGG [JL Atriat mod 1] (puzzle: Sensor v3, turn-off variant 1) | – | – | – | 55.2 | 229 | 73.6
